For orientation: Kd means the concentration at which binding is half-saturated.

From article PMC10786891, “Massively parallel profiling of RNA-targeting CRISPR-Cas13d” come the findings set out here.

Sequences and labels used below:
B1: target 2 MT 5'PFS GUU 3'PFS AGC (mixed)
RNA 1: CACCCGUGCAAAAUUGCAGGGGUCUAAAACCUUCUCCAAAUUGUUUCAUCCU
RNA 2: GGGAAUGGAUCCACAUCUACGAAUUCGUUAGGAUGAAACAAUUUGGAGAAGAGCAGAUCGGAAGAGCACACGU
B2: target 2 MT 5'PFS CUU 3'PFS AAC (mixed)
RNA 1: CACCCGUGCAAAAUUGCAGGGGUCUAAAACCUUCUCCAAAUUGUUUCAUCCU
RNA 2: GGGAAUGGAUCCACAUCUACGAAUUCCUUAGGAUGAAACAAUUUGGAGAAGAACAGAUCGGAAGAGCACACGU
B3: target 2 MT 5'PFS AGC 3'PFS CAU (mixed)
RNA 1: CACCCGUGCAAAAUUGCAGGGGUCUAAAACCUUCUCCAAAUUGUUUCAUCCU
RNA 2: GGGAAUGGAUCCACAUCUACGAAUUCAGCAGGAUGAAACAAUUUGGAGAAGCAUAGAUCGGAAGAGCACACGU
B4: target 2 MT 5'PFS AAU 3'PFS CGC (mixed)
RNA 1: CACCCGUGCAAAAUUGCAGGGGUCUAAAACCUUCUCCAAAUUGUUUCAUCCU
RNA 2: GGGAAUGGAUCCACAUCUACGAAUUCAAUAGGAUGAAACAAUUUGGAGAAGCGCAGAUCGGAAGAGCACACGU
B5: target 2 MT 5'PFS GAG 3'PFS AUG (mixed)
RNA 1: CACCCGUGCAAAAUUGCAGGGGUCUAAAACCUUCUCCAAAUUGUUUCAUCCU
RNA 2: GGGAAUGGAUCCACAUCUACGAAUUCGAGAGGAUGAAACAAUUUGGAGAAGAUGAGAUCGGAAGAGCACACGU
B6: target 2 MT 5'PFS AGC 3'PFS CAA (mixed)
RNA 1: CACCCGUGCAAAAUUGCAGGGGUCUAAAACCUUCUCCAAAUUGUUUCAUCCU
RNA 2: GGGAAUGGAUCCACAUCUACGAAUUCAGCAGGAUGAAACAAUUUGGAGAAGCAAAGAUCGGAAGAGCACACGU
B7: target 2 MT 5'PFS AUA 3'PFS CUC (mixed)
RNA 1: CACCCGUGCAAAAUUGCAGGGGUCUAAAACCUUCUCCAAAUUGUUUCAUCCU
RNA 2: GGGAAUGGAUCCACAUCUACGAAUUCAUAAGGAUGAAACAAUUUGGAGAAGCUCAGAUCGGAAGAGCACACGU
B8: target 2 MT 5'PFS AUA 3'PFS CUU (mixed)
RNA 1: CACCCGUGCAAAAUUGCAGGGGUCUAAAACCUUCUCCAAAUUGUUUCAUCCU
RNA 2: GGGAAUGGAUCCACAUCUACGAAUUCAUAAGGAUGAAACAAUUUGGAGAAGCUUAGAUCGGAAGAGCACACGU
B9: target 2 MT 5'PFS AUA 3'PFS CUA (mixed)
RNA 1: CACCCGUGCAAAAUUGCAGGGGUCUAAAACCUUCUCCAAAUUGUUUCAUCCU
RNA 2: GGGAAUGGAUCCACAUCUACGAAUUCAUAAGGAUGAAACAAUUUGGAGAAGCUAAGAUCGGAAGAGCACACGU
B10: target 2 MT 5'PFS AGA 3'PFS ACA (mixed)
RNA 1: CACCCGUGCAAAAUUGCAGGGGUCUAAAACCUUCUCCAAAUUGUUUCAUCCU
RNA 2: GGGAAUGGAUCCACAUCUACGAAUUCAGAAGGAUGAAACAAUUUGGAGAAGACAAGAUCGGAAGAGCACACGU
B11: target 2 MT 5'PFS AUA 3'PFS CUG (mixed)
RNA 1: CACCCGUGCAAAAUUGCAGGGGUCUAAAACCUUCUCCAAAUUGUUUCAUCCU
RNA 2: GGGAAUGGAUCCACAUCUACGAAUUCAUAAGGAUGAAACAAUUUGGAGAAGCUGAGAUCGGAAGAGCACACGU
B12: target 2 MT 5'PFS AGC 3'PFS CAC (mixed)
RNA 1: CACCCGUGCAAAAUUGCAGGGGUCUAAAACCUUCUCCAAAUUGUUUCAUCCU
RNA 2: GGGAAUGGAUCCACAUCUACGAAUUCAGCAGGAUGAAACAAUUUGGAGAAGCACAGAUCGGAAGAGCACACGU
B13: target 2 MT 5'PFS AGA 3'PFS ACU (mixed)
RNA 1: CACCCGUGCAAAAUUGCAGGGGUCUAAAACCUUCUCCAAAUUGUUUCAUCCU
RNA 2: GGGAAUGGAUCCACAUCUACGAAUUCAGAAGGAUGAAACAAUUUGGAGAAGACUAGAUCGGAAGAGCACACGU
B14: target 2 MT 5'PFS ACC 3'PFS CUA (mixed)
RNA 1: CACCCGUGCAAAAUUGCAGGGGUCUAAAACCUUCUCCAAAUUGUUUCAUCCU
RNA 2: GGGAAUGGAUCCACAUCUACGAAUUCACCAGGAUGAAACAAUUUGGAGAAGCUAAGAUCGGAAGAGCACACGU
B15: target 2 MT 5'PFS CUU 3'PFS AAA (mixed)
RNA 1: CACCCGUGCAAAAUUGCAGGGGUCUAAAACCUUCUCCAAAUUGUUUCAUCCU
RNA 2: GGGAAUGGAUCCACAUCUACGAAUUCCUUAGGAUGAAACAAUUUGGAGAAGAAAAGAUCGGAAGAGCACACGU
B16: target 2 MT 5'PFS UUA 3'PFS CCG (mixed)
RNA 1: CACCCGUGCAAAAUUGCAGGGGUCUAAAACCUUCUCCAAAUUGUUUCAUCCU
RNA 2: GGGAAUGGAUCCACAUCUACGAAUUCUUAAGGAUGAAACAAUUUGGAGAAGCCGAGAUCGGAAGAGCACACGU
B17: target 2 MT 5'PFS GAU 3'PFS UUA (mixed)
RNA 1: CACCCGUGCAAAAUUGCAGGGGUCUAAAACCUUCUCCAAAUUGUUUCAUCCU
RNA 2: GGGAAUGGAUCCACAUCUACGAAUUCGAUAGGAUGAAACAAUUUGGAGAAGUUAAGAUCGGAAGAGCACACGU
B18: target 2 MT 5'PFS CUU 3'PFS AAG (mixed)
RNA 1: CACCCGUGCAAAAUUGCAGGGGUCUAAAACCUUCUCCAAAUUGUUUCAUCCU
RNA 2: GGGAAUGGAUCCACAUCUACGAAUUCCUUAGGAUGAAACAAUUUGGAGAAGAAGAGAUCGGAAGAGCACACGU
B19: target 2 MT 5'PFS GCU 3'PFS CUU (mixed)
RNA 1: CACCCGUGCAAAAUUGCAGGGGUCUAAAACCUUCUCCAAAUUGUUUCAUCCU
RNA 2: GGGAAUGGAUCCACAUCUACGAAUUCGCUAGGAUGAAACAAUUUGGAGAAGCUUAGAUCGGAAGAGCACACGU
B20: target 2 MT 5'PFS AAU 3'PFS CGG (mixed)
RNA 1: CACCCGUGCAAAAUUGCAGGGGUCUAAAACCUUCUCCAAAUUGUUUCAUCCU
RNA 2: GGGAAUGGAUCCACAUCUACGAAUUCAAUAGGAUGAAACAAUUUGGAGAAGCGGAGAUCGGAAGAGCACACGU
B21: target 2 MT 5'PFS CUU 3'PFS AAU (mixed)
RNA 1: CACCCGUGCAAAAUUGCAGGGGUCUAAAACCUUCUCCAAAUUGUUUCAUCCU
RNA 2: GGGAAUGGAUCCACAUCUACGAAUUCCUUAGGAUGAAACAAUUUGGAGAAGAAUAGAUCGGAAGAGCACACGU
B22: target 2 MT 5'PFS AGC 3'PFS CAG (mixed)
RNA 1: CACCCGUGCAAAAUUGCAGGGGUCUAAAACCUUCUCCAAAUUGUUUCAUCCU
RNA 2: GGGAAUGGAUCCACAUCUACGAAUUCAGCAGGAUGAAACAAUUUGGAGAAGCAGAGAUCGGAAGAGCACACGU
B23: target 2 MT 5'PFS AGA 3'PFS ACG (mixed)
RNA 1: CACCCGUGCAAAAUUGCAGGGGUCUAAAACCUUCUCCAAAUUGUUUCAUCCU
RNA 2: GGGAAUGGAUCCACAUCUACGAAUUCAGAAGGAUGAAACAAUUUGGAGAAGACGAGAUCGGAAGAGCACACGU
B24: target 2 MT 5'PFS UUA 3'PFS CCA (mixed)
RNA 1: CACCCGUGCAAAAUUGCAGGGGUCUAAAACCUUCUCCAAAUUGUUUCAUCCU
RNA 2: GGGAAUGGAUCCACAUCUACGAAUUCUUAAGGAUGAAACAAUUUGGAGAAGCCAAGAUCGGAAGAGCACACGU
B25: target 2 MT 5'PFS AGA 3'PFS ACC (mixed)
RNA 1: CACCCGUGCAAAAUUGCAGGGGUCUAAAACCUUCUCCAAAUUGUUUCAUCCU
RNA 2: GGGAAUGGAUCCACAUCUACGAAUUCAGAAGGAUGAAACAAUUUGGAGAAGACCAGAUCGGAAGAGCACACGU
B26: target 1 C6G,C21U (mixed)
RNA 1: CACCCGUGCAAAAAUGCAGGGGUCUAAAACUGAGCGGAUAACCUCUCUAUGG
RNA 2: GGGAAUGGAUCCACAUCUACGAAUUCGUACUAUAGAGAGGUUAUCGGCUCACCGAGAUCGGAAGAGCACACGU
B27: target 1 U3G,C7U (mixed)
RNA 1: CACCCGUGCAAAAAUGCAGGGGUCUAAAACUGAGCGGAUAACCUCUCUAUGG
RNA 2: GGGAAUGGAUCCACAUCUACGAAUUCGUACCAUAGAGAGGUUAUUCGCGCACCGAGAUCGGAAGAGCACACGU

In the data set the target is T1, EsCas13d, nuclease-dead (Eubacterium siraeum, UniProt B0MS50, R295A;H300A;R849A;H854A).
T1 sequence: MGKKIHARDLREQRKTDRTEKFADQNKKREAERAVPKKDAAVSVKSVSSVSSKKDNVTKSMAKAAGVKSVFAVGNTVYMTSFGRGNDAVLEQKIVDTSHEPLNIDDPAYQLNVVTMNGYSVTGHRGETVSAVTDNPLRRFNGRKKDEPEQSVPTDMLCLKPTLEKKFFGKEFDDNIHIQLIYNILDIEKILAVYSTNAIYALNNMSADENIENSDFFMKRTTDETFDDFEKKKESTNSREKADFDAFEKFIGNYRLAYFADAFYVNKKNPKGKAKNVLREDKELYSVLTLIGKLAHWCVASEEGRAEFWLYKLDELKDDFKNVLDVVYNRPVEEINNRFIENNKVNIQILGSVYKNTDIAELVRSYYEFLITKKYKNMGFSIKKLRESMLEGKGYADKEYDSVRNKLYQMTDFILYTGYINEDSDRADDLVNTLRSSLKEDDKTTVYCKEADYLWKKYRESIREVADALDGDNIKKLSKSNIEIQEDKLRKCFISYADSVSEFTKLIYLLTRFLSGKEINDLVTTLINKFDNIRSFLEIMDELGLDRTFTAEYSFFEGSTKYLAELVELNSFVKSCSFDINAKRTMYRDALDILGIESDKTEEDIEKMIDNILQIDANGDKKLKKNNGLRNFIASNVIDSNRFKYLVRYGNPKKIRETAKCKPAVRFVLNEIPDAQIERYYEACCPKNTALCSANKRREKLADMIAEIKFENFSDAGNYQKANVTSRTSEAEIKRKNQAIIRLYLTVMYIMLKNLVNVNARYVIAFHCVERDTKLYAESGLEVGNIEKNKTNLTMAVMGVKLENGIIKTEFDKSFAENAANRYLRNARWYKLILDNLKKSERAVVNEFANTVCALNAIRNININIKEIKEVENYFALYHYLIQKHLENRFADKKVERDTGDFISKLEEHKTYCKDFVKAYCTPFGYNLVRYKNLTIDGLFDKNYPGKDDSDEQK
Briefly: crRNA (strand 1, pre-loaded); Mg2+; 40 mM Tris-HCl pH 7.5, 150 mM NaCl, 6 mM MgCl2, 1 mM DTT, 0.1% Tween-20, 0.2 mg/ml BSA; 25 C; 10 min per concentration, then washed. To be noted: tags: His6-TwinStrep-SUMO cleaved; N-terminal SNAP kept (SNAP-Surface 488); label: 3' end held by stalled T7 RNA polymerase.
B1 registered a Kd of 11.6 ± 1.2 nM.

In turn, B2 yielded a Kd of 4.3 ± 0.5 nM. Against the preceding molecule, the Kd is about 2.7-fold lower.

B3 registered a Kd of 7.3 ± 1.3 nM.

In turn, B4 gave a Kd of 7.3 ± 1.3 nM.

With B5, the Kd stood at 5.9 ± 0.4 nM.

For B6, the affinity, expressed as Kd, was 7 ± 1.8 nM.

In turn, B7 came in with a Kd of 13 ± 4 nM. This Kd lies about 1.9-fold higher than the previous one.

Molecule B8 gave a Kd of 20 ± 6 nM.

Regarding B9, the affinity, expressed as Kd, was 6.1 ± 1.4 nM.

Molecule B10 displayed a Kd of 4.6 ± 1.1 nM.

Regarding B11, the Kd stood at 8.8 ± 1.6 nM.

As to B12, binding was put at a Kd of 11.4 ± 2.6 nM.

The molecule B13 yielded a Kd of 11.6 ± 1.9 nM.

In turn, B14 had a Kd of 9.7 ± 2.5 nM.

In the case of B15, binding was characterised by a dissociation constant (Kd) of 2.9 ± 0.35 nM.

Take B16: the Kd was found to be 39 ± 4 nM. Against the preceding molecule, the Kd is about 13-fold higher.

The molecule B17 returned a Kd of 23 ± 7 nM.

The molecule B18 came in with a Kd of 4.1 ± 0.4 nM.

Turning to B19, the Kd was 17.5 ± 3 nM.

B20 displayed a Kd of 4.6 ± 0.6 nM.

In turn, B21 had a Kd of 4.3 ± 0.6 nM.

Take B22: the Kd was determined as 6.7 ± 1.1 nM.

With B23, binding was characterised by a dissociation constant (Kd) of 10.3 ± 1.8 nM.

In turn, B24 registered a Kd of 29 ± 5 nM.

B25 registered a Kd of 21 ± 9 nM.

B26 registered a Kd of 5.38 ± 0.17 nM.

On to B27, for which the Kd stood at 5.39 ± 0.15 nM.
